Assay results from US20230265179A1 (TWIST BIOSCIENCE, published 2023).

T1: CD40L over-expressed on Expi293 cells (UniProt P29965 1-261, limits assumed)
T1 construct: whole, on cells; also called cytokine over-expressing Expi293 cells
T1 sequence (looked up): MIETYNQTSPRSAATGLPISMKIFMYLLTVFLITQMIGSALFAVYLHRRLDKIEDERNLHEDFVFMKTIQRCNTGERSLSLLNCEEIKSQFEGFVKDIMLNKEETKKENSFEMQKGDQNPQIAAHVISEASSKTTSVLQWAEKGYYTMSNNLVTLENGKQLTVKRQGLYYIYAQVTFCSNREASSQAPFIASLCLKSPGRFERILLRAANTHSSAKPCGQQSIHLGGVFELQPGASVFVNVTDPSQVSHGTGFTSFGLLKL

T2: IL1RL1 (UniProt Q01638 19-328, limits assumed)
T2 construct: SPR analyte
T2 sequence (looked up): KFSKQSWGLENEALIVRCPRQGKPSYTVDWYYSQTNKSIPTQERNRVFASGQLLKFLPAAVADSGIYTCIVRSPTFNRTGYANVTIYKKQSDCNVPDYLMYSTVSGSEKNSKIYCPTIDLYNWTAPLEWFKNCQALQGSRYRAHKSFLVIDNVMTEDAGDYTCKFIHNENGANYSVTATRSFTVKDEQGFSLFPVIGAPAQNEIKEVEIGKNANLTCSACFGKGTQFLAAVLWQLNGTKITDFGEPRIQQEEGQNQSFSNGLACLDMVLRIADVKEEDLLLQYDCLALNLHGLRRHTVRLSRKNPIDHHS


Assays:
[1] = target: T1, CD40L over-expressed on Expi293 cells; assay: flow cytometry, 100 nM antibody, CD40L-Expi293 vs parent Expi293 cells;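 also: ratio is the mean fluorescence intensity on CD40L-overexpressing Expi293 cells divided by the mean fluorescence intensity on parental Expi293 cells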
Description: All incubations and washes were in buffer containing PBS+1% BSA. MFI Ratio is defined by the mean fluorescence intensity (MFI) of the cytokine over-expressing Expi293 cell over the Expi293 parent cell. […] EC50 was calculated in GraphPad Prism.

IL1RL1 = target: T2, IL1RL1; assay: SPR (Carterra LSA), antibody amine-coupled, 1:1 model;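 also: HC30M sensor chip at 25 °C in HBS-TE, analyte at rising concentrations in buffer containing 0.5 mg/mL BSA, 5 min association then 15 min dissociation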
Description: SPR experiments were performed on a Carterra LSA SPR biosensor equipped with a HC30M chip at 25° C. in HBS-TE. Antibodies were diluted to 10 μg/mL and amine-coupled to the sensor chip by EDC/NHS activation, followed by ethanolamine HCl quenching. Increasing concentrations of analyte were flowed over the sensor chip in HBS-TE with 0.5 mg/mL BSA with 5-minute association and 15-minute dissociation. Following each injection cycle the surface was regenerated with 2× 30-second injections of IgG elution buffer (Thermo). Data were analyzed in Carterra's Kinetics Tool software with 1:1 binding model.

100 nM FACS (MFI Ratio) [1] [ratio]	Binder	other results
26	CD40L-88 (VHH) VHH: EVQLVESGGGLVQPGGSLRLSCAASGFTFDDYDMGWFRQAPGKEREFVAAIDWSGGSTYYADSVKGRFTISADNSKNTAYLQMNSLKPEDTAVYYCASDHYDTDTKSDVYNWGQGTLVTVSS	–
6.6	CD40L-92 (VHH) VHH: EVQLVESGGGLVQPGGSLRLSCAASGFTFDDSDMGWFRQAPGKEREFVAAIDASGGFTEYADSVKGRFTISADNSKNTAYLQMNSLKPEDTAVYYCASDHYDTDTKSDVYNWGQGTLVTVSS	–
12.1	CD40L-131 (VHH) VHH: EVQLVESGGGLVQPGGSLRLSCAASGFTYGNYDMGWFRQAPGKEREFVAAIYPSGRNAYYADSVKGRFTISADNSKNTAYLQMNSLKPEDTAVYYCASDHYDTDTKSDVYNWGQGTLVTVSS	–
8.9	CD40L-86 (VHH) VHH: EVQLVESGGGLVQPGGSLRLSCAASGRTLTNYDMGWFRQAPGKEREFVAVINSGGGSTQYADSVKGRFTISADNSKNTAYLQMNSLKPEDTAVYYCASDHYDTDTKSDVYNWGQGTLVTVSS	–
22.4	CD40L-136 (VHH) VHH: EVQLVESGGGLVQPGGSLRLSCAASGFTFSDYDMGWFRQAPGKEREFVAAISMSGEDAAYADSVKGRFTISADNSKNTAYLQMNSLKPEDTAVYYCASDHYDTDTKSDVYNWGQGTLVTVSS	–
12.5	CD40L-148 (VHH) VHH: EVQLVESGGGLVQPGGSLRLSCAASGFTFGNYDMGWFRQAPGKERELVAAISMSGDDAAYADSVKGRFTISADNSKNTAYLQMNSLKPEDTAVYYCASDHYDTDTKSDVYNWGQGTLVTVSS	–
18.3	CD40L-87 (VHH) VHH: EVQLVESGGGLVQPGGSLRLSCAASGFTFDDYDMGWFRQAPGKEREFVAAISMSGDDAAYADSVKGRFTISADNSKNTAYLQMNSLKPEDTAVYYCASDHYDTDTKSDVYNWGQGTLVTVSS	–
5.1	CD40L-138 (VHH) VHH: EVQLVESGGGLVQPGGSLRLSCAASGFTFGNYDMGWFRQAPGKEREFVAVIDTNGGLIAYADSVKGRFTISADNSKNTAYLQMNSLKPEDTAVYYCASDHYDTDTKSDVYNWGQGTLVTVSS	–
8.3	CD40L-143 (VHH) VHH: EVQLVESGGGLVQPGGSLRLSCAASGRTFSSYDMGWFRQAPGKEREFVAAIDASGGFTEYADSVKGRFTISADNSKNTAYLQMNSLKPEDTAVYYCASDHYDTDTKSDVYNWGQGTLVTVSS	–
42.6	CD40L-85 (VHH) VHH: EVQLVESGGGLVQPGGSLRLSCAASGLNLSRLDMGWFRQAPGKEREFVAAVSGSGDDTYYADSVKGRFTISADNSKNTAYLQMNSLKPEDTAVYYCASDHYDTDTKSDVYNWGQGTLVTVSS	–
19.4	CD40L-64 (VHH) VHH: EVQLVESGGGLVQPGGSLRLSCAASGFTFSRYEMGWFRQAPGKEREMVAAIDDGGNTEYADSVKGRFTISADNSKNTAYLQMNSLKPEDTAVYYCASDHYDTDTKSDVYNWGQGTLVTVSS	–
11.9	CD40L-127 (VHH) VHH: EVQLVESGGGLVQPGGSLRLSCAASGFTFSRYEMGWFRQAPGKERELVASITNGGSTYYADSVKGRFTISADNSKNTAYLQMNSLKPEDTAVYYCASDHYDTDTKSDVYNWGQGTLVTVSS	–
7.4	CD40L-147 (VHH) VHH: EVQLVESGGGLVQPGGSLRLSCAASGFTFSRYEMGWFRQAPGKEREFVATITEGGARNYADSVKGRFTISADNSKNTAYLQMNSLKPEDTAVYYCASDHYDTDTKSDVYNWGQGTLVTVSS	–
7.7	CD40L-137 (VHH) VHH: EVQLVESGGGLVQPGGSLRLSCAASGFTFSRYEMGWFRQAPGKEREFVAAIDDGGNTEYADSVKGRFTISADNSKNTAYLQMNSLKPEDTAVYYCAAVYVSTWGNGYDWGQGTLVTVSS	–
–	IL1RL1-84 (Fc fusion, not shown: a dimerising Fc or GST, VHH-Fc on IgG2 Fc) VHH: EVQLVESGGGLVQPGGSLRLSCAASGGIISNYHMGWFRQAPGKEREGVAAIYSDGSTYYADRVKGRFTISADNSKNTAYLQMNSLKPEDTAVYYCAARPVRVDDISLPVGFDWGQGTLVTVSS	Kd (IL1RL1): ≤ 0.0673 nM; koff (IL1RL1): ≤ 1e-05 s⁻¹; kon (IL1RL1): 149000 M⁻¹ s⁻¹
1.6	CD40L-128 (VHH) VHH: EVQLVESGGGLVQPGGSLRLSCAASGLTFGTHVMGWFRQAPGKEREFVASIDWSGRSTYYADSVKGRFTISADNSKNTAYLQMNSLKPEDTAVYYCAADVWGLGYDWGQGTLVTVSS	–
4.3	CD40L-140 (VHH) VHH: EVQLVESGGGLVQPGGSLRLSCAASGNIFSHNAMGWFRQAPGKEREFVASMRGSGSTVYADSVKGRFTISADNSKNTAYLQMNSLKPEDTAVYYCAKSVYGDYIFDYWGQGTLVTVSS	–
7.3	CD40L-134 (VHH) VHH: EVQLVESGGGLVQPGGSLRLSCAASGFTFSRYEMGWFRQAPGKEREFVATITEGGARNYADSVKGRFTISADNSKNTAYLQMNSLKPEDTAVYYCAAEIGYYSGGTYFSSEAWGQGTLVTVSS	–
5.9	CD40L-71 (VHH) VHH: EVQLVESGGGLVQPGGSLRLSCAASGSIDNIHAMGWFRQAPGKERKFVAVIYSSDGSTLYADSVKGRFTISADNSKNTAYLQMNSLKPEDTAVYYCAAEPYGSGSSLMSEYDWGQGTLVTVSS	–
4.9	CD40L-110 (VHH) VHH: EVQLVESGGGLVQPGGSLRLSCAASGSSGVINAMGWFRQAPGKEREFIAVIYWRDGSSLYADSVKGRFTISADNSKNTAYLQMNSLKPEDTAVYYCAAEPYGSGSSLISEYDWGQGTLVTVSS	–
6	CD40L-81 (VHH) VHH: EVQLVESGGGLVQPGGSLRLSCAASGGIFGINAMGWFRQAPGKEREFIAVIYWRDGSSLYADSVKGRFTISADNSKNTAYLQMNSLKPEDTAVYYCAAEPYGSGSSLISEYDWGQGTLVTVSS	–
6.9	CD40L-121 (VHH) VHH: EVQLVESGGGLVQPGGSLRLSCAASGRTFSTYAMGWFRQAPGKEREFVAVIYSSDGSTLYADSVKGRFTISADNSKNTAYLQMNSLKPEDTAVYYCAAEPYGSGSSLISEYDWGQGTLVTVSS	–
8.9	CD40L-97 (VHH) VHH: EVQLVESGGGLVQPGGSLRLSCAASGGTFGHYAMGWFRQAPGKEREFVAVIYSSDGSTLYADSVKGRFTISADNSKNTAYLQMNSLKPEDTAVYYCAAEPYGSGSSLISEYDWGQGTLVTVSS	–
15.7	CD40L-83 (VHH) VHH: EVQLVESGGGLVQPGGSLRLSCAASGRTSNIYAMGWFRQAPGKEREFIAVIYWRDGSSLYADSVKGRFTISADNSKNTAYLQMNSLKPEDTAVYYCAAEPYGSGSSLISEYDWGQGTLVTVSS	–
4.7	CD40L-109 (VHH) VHH: EVQLVESGGGLVQPGGSLRLSCAASGSILSINAMGWFRQAPGKEREFVAVIYSSDGSTLYADSVKGRFTISADNSKNTAYLQMNSLKPEDTAVYYCAAEPYGSGSSLMSEYDWGQGTLVTVSS	–
6.7	CD40L-123 (VHH) VHH: EVQLVESGGGLVQPGGSLRLSCAASGRTFSIYAMGWFRQAPGKEREFVAVIYSSDGSTLYADSVKGRFTISADNSKNTAYLQMNSLKPEDTAVYYCAAEPYGSGSSLMSEYDWGQGTLVTVSS	–
8.2	CD40L-78 (VHH) VHH: EVQLVESGGGLVQPGGSLRLSCAASGGTFSVFAMGWFRQAPGKEREFVAVIYSSDGSTLYADSVKGRFTISADNSKNTAYLQMNSLKPEDTAVYYCAAEPYGSGSSLISEYDWGQGTLVTVSS	–
3.9	CD40L-132 (VHH) VHH: EVQLVESGGGLVQPGGSLRLSCAASGSIDRINAMGWFRQAPGKEREFIAVIYWRDGSSLYADSVKGRFTISADNSKNTAYLQMNSLKPEDTAVYYCAAEPYGSGSSLISEYDWGQGTLVTVSS	–
3.6	CD40L-117 (VHH) VHH: EVQLVESGGGLVQPGGSLRLSCAASGFIGNYHAMGWFRQAPGKEREFIAVIYWRDGSSLYADSVKGRFTISADNSKNTAYLQMNSLKPEDTAVYYCAAEPYGSGSSLISEYDWGQGTLVTVSS	–
